For 82 sequences, AmyQ secretion efficiency results are on record in the supplement of paper PMC9942255.

Several values for one entry are separate records, joined by “and”; a condition that tells them apart may be missing. Equal values may be shown once.

The data set has as its system Bacillus subtilis DB104 (SP-AmyQ fusion secretion). Put plainly: AmyQ secretion efficiency, weighted average sort bin (1 = best secretion, 10 = worst) (bin number (weighted average, 1-10)); higher = lower secretion efficiency. The method in brief:
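The secretion score was taken as the read-frequency-weighted mean bin number, normalised to beads per bin, with low-abundance sequences excluded. Bins came from large-particle flow cytometry sorting of occupied alginate beads (~65 nL, about 0.3 cells each, with fluorescein-starch) into 10 equally populated groups by green/red fluorescence ratio after about 13 h at room temperature and nile red staining. The cells were a B. subtilis DB104 library with mature AmyQ fused to designed signal peptides, integrated at amyE, and each bin's amplicons were Illumina-sequenced.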

Sequence MKKRLIAPMLLSAASLAFFAQEGSAQAAAY showed an AmyQ secretion efficiency of 2.53.

MKKRLIAPMLLSAASLAFFARRKRKKAQAAAY showed an AmyQ secretion efficiency of 7.44.

On to MKKRLIAPMLLSAASLAFFATFMSGSAQAAAY, for which the AmyQ secretion efficiency stood at 3.39.

In turn, MKKRLIAPMLLSAASLAFMSGSAQAAAY had an AmyQ secretion efficiency of 3.31.

The sequence MKKRLIAPMSGYGASLAFFAMSGSAQAAAY returned an AmyQ secretion efficiency of 7.43.

For MKKRLIGFLVLVPALIEDEEELIEANKK, the AmyQ secretion efficiency stood at 7.82.

Consider MKKRLIGFLVLVPALIEDGITLIEANKK, for which the AmyQ secretion efficiency came out at 5.91.

MKKRLIGFLVLVPALIKSGITLIEANKK displayed an AmyQ secretion efficiency of 6.34.

With MKKRLIGFLVLVPALIMIEANKK, the AmyQ secretion efficiency came to 6.53.

In turn, MKKRLIGFLVLVPALIMSGITLAEANKK showed an AmyQ secretion efficiency of 7.38.

For the sequence MKKRLIGFLVLVPALIMSGITLDEANKK, the AmyQ secretion efficiency amounted to 4.52.

MKKRLIGFLVLVPALIMSGITLEEANKK had an AmyQ secretion efficiency of 7.58.

MKKRLIGFLVLVPALIMSGITLGEANKK showed an AmyQ secretion efficiency of 6.8.

Turning to MKKRLIGFLVLVPALIMSGITLIEANDD, the AmyQ secretion efficiency was determined as 4.89.

Regarding MKKRLIGFLVLVPALIMSGITLIEANKK, the AmyQ secretion efficiency was 5.85 and 6.63 and 6.16.

Take MKKRLIGFLVLVPALIMSGITLIEANPY: the AmyQ secretion efficiency came out at 7.07.

For the sequence MKKRLIGFLVLVPALIMSGITLIEANSE, the AmyQ secretion efficiency stood at 7.68.

Regarding MKKRLIGFLVLVPALIMSGITLIEARKK, the AmyQ secretion efficiency is 7.62.

As for MKKRLIGFLVLVPALIMSGITLIECNKK, the AmyQ secretion efficiency is 6.67.

MKKRLIGFLVLVPALIMSGITLIEDNKK yielded an AmyQ secretion efficiency of 7.79.

With MKKRLIGFLVLVPALIMSGITLIEINKK, the AmyQ secretion efficiency was 7.02.

MKKRLIGFLVLVPALIMSGITLIELNKK returned an AmyQ secretion efficiency of 6.99.

With MKKRLIGFLVLVPALIMSGITLIEMNKK, the AmyQ secretion efficiency came out at 6.01.

Take MKKRLIGFLVLVPALIMSGITLIENNKK: the AmyQ secretion efficiency came out at 6.74.

For MKKRLIGFLVLVPALIMSGITLIEPNKK, the AmyQ secretion efficiency amounted to 7.44.

MKKRLIGFLVLVPALIMSGITLIERNKK showed an AmyQ secretion efficiency of 6.81.

In turn, MKKRLIGFLVLVPALIMSGITLIESNKK gave an AmyQ secretion efficiency of 5.98.

Consider MKKRLIGFLVLVPALIMSGITLIEWNKK, for which the AmyQ secretion efficiency stood at 3.04.

Sequence MKKRLIGFLVLVPALIMSGITLIEYNKK showed an AmyQ secretion efficiency of 9.98.

As for MKKRLIGFLVLVPALIMSGITLKEANKK, the AmyQ secretion efficiency worked out at 6.33.

In turn, MKKRLIGFLVLVPALIMSGITLLEANKK came in with an AmyQ secretion efficiency of 6.63.

On to MKKRLIGFLVLVPALIMSGITLMEANKK, for which the AmyQ secretion efficiency amounted to 7.17.

For MKKRLIGFLVLVPALIMSGITLQEANKK, the AmyQ secretion efficiency was determined as 7.31.

With MKKRLIGFLVLVPALIMSGITLREANKK, the AmyQ secretion efficiency came out at 7.02.

The sequence MKKRLIGFLVLVPALIMSGITLYEANKK yielded an AmyQ secretion efficiency of 5.95.

In the case of MKKRLILLSAASLAFFAMSGSAQAAAY, the AmyQ secretion efficiency was found to be 2.92.

For the sequence MKKRLIQVMIMFTLLLRKRRSADAADS, the AmyQ secretion efficiency came to 6.79.

The sequence MKKRLIQVMIMFTLLLRRKRRRRADAADS gave an AmyQ secretion efficiency of 8.45.

In the case of MKKRLKRKRVLVPALIMSGITLIEANKK, the AmyQ secretion efficiency was found to be 6.77.

MKKRMMMIMFFGPIILAFILFAGAIAIPS came in with an AmyQ secretion efficiency of 7.34.

Consider MKKRQIAPGLLSAASLAFFAMSGSAQAAAY, for which the AmyQ secretion efficiency is 4.58.

With MKKRRAIIIAIIAAVIVIAALITFNVRNASPG, the AmyQ secretion efficiency stood at 5.35.

Turning to MKKRRGRGSVLVPALIMSGITLIEANKK, the AmyQ secretion efficiency was found to be 7.89.

The sequence MKKRRIVSILFMFGLVMGFSQFQPSTVFAADK came in with an AmyQ secretion efficiency of 2.46.

For the sequence MKKRRKKLLAAGIIGLLTVSIASPSFAAEK, the AmyQ secretion efficiency is 3.36.

In the case of MKKRRKSFVAVAALSTTAFGAHASAKEI, the AmyQ secretion efficiency was 6.63.

In turn, MKKRRLIGFLVLVPALIMSGITLIEANKK had an AmyQ secretion efficiency of 6.64.

With MKKRRLLAAGIIGLLTVSIASPSFAAEK, the AmyQ secretion efficiency is 2.29 and 2.73.

For MKKRRRRIAMLILAGIALFVFISPLKSHKT, the AmyQ secretion efficiency stood at 6.26.

The sequence MKKRRSLIMMTGLLFGLTSPAFAAEK yielded an AmyQ secretion efficiency of 3.58.

MKKRRVLMAFIICLSLILSVLAAPPSGAKAESV showed an AmyQ secretion efficiency of 1.87.

MKKRRYFIVFICFFVLFSVHPIAAAAADS had an AmyQ secretion efficiency of 3.35.

The sequence MKKRTIQVMIMFTLLLTMAFSADAADS registered an AmyQ secretion efficiency of 5.

Sequence MKKRWRKTSQAAVLLLMVPKVSLADAA returned an AmyQ secretion efficiency of 7.38.

For MKKRYMAFIICLSLILSVLAAPPSGAKAESV, the AmyQ secretion efficiency was 2.

MKKSAAVLLSLGLVSGFSYGAGHVAEAKTK registered an AmyQ secretion efficiency of 2.59.

In turn, MKKSGSCQKTLAVILSGVALTQLS came in with an AmyQ secretion efficiency of 4.76.

Sequence MKKSKQSGRLFLGLTPAGANAADL showed an AmyQ secretion efficiency of 6.97.

MKKSMLAAAVLLSLGLVFGFSYGAGHVAEAKTK registered an AmyQ secretion efficiency of 2.84.

As to MKKSQYFIVFICFFVLFSEHEEAAAAADS, the AmyQ secretion efficiency turned out to be 4.11.

MKKSQYFIVFICFFVLFSRHKKAAAAADS: the AmyQ secretion efficiency was determined as 6.2.

Consider MKKSQYFIVFICFFVLFSRRKHKRRAAAADS, for which the AmyQ secretion efficiency was determined as 7.81.

MKKSQYFIVFICFFVLFSSHPDEAAAADS: the AmyQ secretion efficiency was 4.15.

For the sequence MKKSQYFIVFICFFVLFSVHPIAAAAASS, the AmyQ secretion efficiency worked out at 2.35.

MKKSQYFIVFICFFVLFSVHPIAAACADS: the AmyQ secretion efficiency was 4.69.

For MKKSQYFIVFICFFVLFSVHPIAAAEADS, the AmyQ secretion efficiency was 3.09.

MKKSQYFIVFICFFVLFSVHPIAAAFADS had an AmyQ secretion efficiency of 5.18.

In turn, MKKSQYFIVFICFFVLFSVHPIAAAGADS registered an AmyQ secretion efficiency of 3.85.

With MKKSQYFIVFICFFVLFSVHPIAAANADS, the AmyQ secretion efficiency was 4.12.

Consider MKKSQYFIVFICFFVLFSVHPIAAARADS, for which the AmyQ secretion efficiency was 3.7.

In the case of MKKSQYFIVFICFFVLFSVHPIAEAAADS, the AmyQ secretion efficiency came to 3.62.

The sequence MKKSQYFIVFICFFVLFSVHPIAFTPSAAAADS came in with an AmyQ secretion efficiency of 2.09.

MKKSQYFIVFICFFVLFSVHPIAGAAADS had an AmyQ secretion efficiency of 3.96.

MKKSQYFIVFICFFVLFSVHPIALAAADS had an AmyQ secretion efficiency of 3.9.

Take MKKSQYFIVFICFFVLFSVHPIAPAAADS: the AmyQ secretion efficiency stood at 4.14.

In turn, MKKSQYFIVFICFFVLFSVHPIAQAAADS had an AmyQ secretion efficiency of 4.87.

MKKSQYFIVFICFFVLFSVHPIARAAADS registered an AmyQ secretion efficiency of 3.28.

The sequence MKKSQYFIVFICFFVLFSVHPIASAAADS registered an AmyQ secretion efficiency of 4.61.

In turn, MKKSQYFIVFICFFVLFSVHPIATAAADS had an AmyQ secretion efficiency of 3.6.

For MKKSQYFIVFICFFVLFSVHPIAVAAADS, the AmyQ secretion efficiency stood at 3.83.

For the sequence MKKSQYFKRRKCFFVLFSVHPIAAAAADS, the AmyQ secretion efficiency amounted to 9.07.

Take MKKSQYFRKRRCKRVLFSVHPIAAAAADS: the AmyQ secretion efficiency was found to be 7.95.
